Results: article PMC10786891, “Massively parallel profiling of RNA-targeting CRISPR-Cas13d”
Residue numbers refer to the chain shown, from its start. In names and notes the source's numbering stands.

T1: EsCas13d, nuclease-dead (Eubacterium siraeum, UniProt B0MS50, R295A;H300A;R849A;H854A)
T1 sequence: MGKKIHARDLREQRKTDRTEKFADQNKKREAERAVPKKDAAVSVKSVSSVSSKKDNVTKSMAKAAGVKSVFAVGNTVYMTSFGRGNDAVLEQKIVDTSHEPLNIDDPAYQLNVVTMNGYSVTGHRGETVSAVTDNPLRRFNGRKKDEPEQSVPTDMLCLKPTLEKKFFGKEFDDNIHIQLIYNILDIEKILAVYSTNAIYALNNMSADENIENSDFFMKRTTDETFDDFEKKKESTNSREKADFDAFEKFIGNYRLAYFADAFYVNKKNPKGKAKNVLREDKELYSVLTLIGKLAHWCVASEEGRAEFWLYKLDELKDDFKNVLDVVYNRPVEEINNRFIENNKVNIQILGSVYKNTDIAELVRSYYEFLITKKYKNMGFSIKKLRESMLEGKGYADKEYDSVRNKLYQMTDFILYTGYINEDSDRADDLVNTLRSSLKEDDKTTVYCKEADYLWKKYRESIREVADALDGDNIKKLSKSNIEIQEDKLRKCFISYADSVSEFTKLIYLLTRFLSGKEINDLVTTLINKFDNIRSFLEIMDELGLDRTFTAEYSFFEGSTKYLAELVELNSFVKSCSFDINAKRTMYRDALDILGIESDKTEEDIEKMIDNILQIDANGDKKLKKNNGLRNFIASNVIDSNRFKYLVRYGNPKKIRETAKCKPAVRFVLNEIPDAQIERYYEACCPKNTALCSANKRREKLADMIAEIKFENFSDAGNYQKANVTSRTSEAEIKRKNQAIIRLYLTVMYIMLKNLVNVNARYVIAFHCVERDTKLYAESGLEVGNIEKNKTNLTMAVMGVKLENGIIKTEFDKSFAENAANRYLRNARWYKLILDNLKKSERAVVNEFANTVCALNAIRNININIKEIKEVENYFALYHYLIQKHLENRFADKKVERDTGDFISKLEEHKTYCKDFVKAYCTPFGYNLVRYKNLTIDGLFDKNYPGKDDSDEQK

B1: target 1 U11C,G12C (mixed)
RNA 1: CACCCGUGCAAAAAUGCAGGGGUCUAAAACUGAGCGGAUAACCUCUCUAUGG
RNA 2: GGGAAUGGAUCCACAUCUACGAAUUCGUACCAUAGAGAGCCUAUCCGCUCACCGAGAUCGGAAGAGCACACGU
B2: target 1 insG 3' of 10,insU 3' of 5 (mixed)
RNA 1: B1 RNA 1
RNA 2: GGGAAUGGAUCCACAUCUACGAAUUCGUACCAUAGAGAGGUUGAUCCGUCUCACCGAGAUCGGAAGAGCACACGU
B3: target 1 G12C,G13A (mixed)
RNA 1: B1 RNA 1
RNA 2: B1 RNA 2 with G39A, C41U
B4: target 1 insU 3' of 12,insG 3' of 7 (mixed)
RNA 1: B1 RNA 1
RNA 2: B2 RNA 2 with G43U, C47G, G48C, U49G
B5: target 1 insG 3' of 3,insC 3' of 3 (mixed)
RNA 1: B1 RNA 1
RNA 2: B2 RNA 2 with G43A, A44U, U45C, C47G, G48C, C50G, U51C
B6: target 1 insU 3' of 21,insG 3' of 19 (mixed)
RNA 1: B1 RNA 1
RNA 2: GGGAAUGGAUCCACAUCUACGAAUUCGUACCUAUGAGAGAGGUUAUCCGCUCACCGAGAUCGGAAGAGCACACGU
B7: target 1 insC 3' of 9,insC 3' of 8 (mixed)
RNA 1: B1 RNA 1
RNA 2: B2 RNA 2 with G43A, A44C, G48C, U49G
B8: target 1 G13C (mixed)
RNA 1: B1 RNA 1
RNA 2: B1 RNA 2 with G39C, C40G, C41U
B9: target 1 U10A,G17A (mixed)
RNA 1: B1 RNA 1
RNA 2: B1 RNA 2 with G35A, C40G, C41U, U42A
B10: target 1 insG 3' of 19,insA 3' of 13 (mixed)
RNA 1: B1 RNA 1
RNA 2: GGGAAUGGAUCCACAUCUACGAAUUCGUACCAUGAGAGAGAGUUAUCCGCUCACCGAGAUCGGAAGAGCACACGU
B11: target 1 C7A,C22U (mixed)
RNA 1: B1 RNA 1
RNA 2: B1 RNA 2 with C30U, C40G, C41U, C45A
B12: target 1 A9G,C22G (mixed)
RNA 1: B1 RNA 1
RNA 2: B1 RNA 2 with C30G, C40G, C41U, A43G
B13: target 1 G12A,U19C (mixed)
RNA 1: B1 RNA 1
RNA 2: B1 RNA 2 with U33C, C40A, C41U
B14: target 1 insG 3' of 20,insG 3' of 20 (mixed)
RNA 1: B1 RNA 1
RNA 2: B6 RNA 2 with U32A, A33G, U34G, G35U
B15: target 1 insU 3' of 15 (mixed)
RNA 1: B1 RNA 1
RNA 2: GGGAAUGGAUCCACAUCUACGAAUUCGUACCAUAGAGUAGGUUAUCCGCUCACCGAGAUCGGAAGAGCACACGU
B16: target 1 insU 3' of 18,insG 3' of 3 (mixed)
RNA 1: B1 RNA 1
RNA 2: GGGAAUGGAUCCACAUCUACGAAUUCGUACCAUAUGAGAGGUUAUCCGCUGCACCGAGAUCGGAAGAGCACACGU
B17: target 1 C6G,G13U (mixed)
RNA 1: B1 RNA 1
RNA 2: B1 RNA 2 with G39U, C40G, C41U, C46G
B18: target 1 insU 3' of 17,insA 3' of 4 (mixed)
RNA 1: B1 RNA 1
RNA 2: B16 RNA 2 with U35G, G36U, U50A, G51U
B19: target 1 insU 3' of 21,insG 3' of 2 (mixed)
RNA 1: B1 RNA 1
RNA 2: B16 RNA 2 with A32U, U33A, A34U, U35A, G51C, C52G
B20: target 1 complement block 1-5 (mixed)
RNA 1: B1 RNA 1
RNA 2: B1 RNA 2 with C40G, C41U, G47C, C48G, U49A, C50G, A51U
B21: target 1 A9G,G12U (mixed)
RNA 1: B1 RNA 1
RNA 2: B1 RNA 2 with C40U, C41U, A43G
B22: target 1 insC 3' of 9,insG 3' of 4 (mixed)
RNA 1: B1 RNA 1
RNA 2: B2 RNA 2 with G43A, A44C, U49C, C50G
B23: target 1 C2G,U8C (mixed)
RNA 1: B1 RNA 1
RNA 2: B1 RNA 2 with C40G, C41U, U44C, C50G
B24: target 3 complement block 3-7 (mixed)
RNA 1: CACCCGUGCAAAAUUGCAGGGGUCUAAAACGACCUGAAUAUUUCAGAUCAAA
RNA 2: GGGAAUGGAUCCACAUCUACGAAUUCGUUUUUGAUCUGAAAUAUAGUCCUCUGCAGAUCGGAAGAGCACACGU
B25: target 3 insA 3' of 8,insA 3' of 7 (mixed)
RNA 1: B24 RNA 1
RNA 2: GGGAAUGGAUCCACAUCUACGAAUUCGUUUUUGAUCUGAAAUAUAUACAGGUCUGCAGAUCGGAAGAGCACACGU
B26: target 3 del14,del17 (mixed)
RNA 1: B24 RNA 1
RNA 2: GGGAAUGGAUCCACAUCUACGAAUUCGUUUUUGACUAAAUAUUCAGGUCUGCAGAUCGGAAGAGCACACGU
B27: target 3 insU 3' of 16,insA 3' of 4 (mixed)
RNA 1: B24 RNA 1
RNA 2: GGGAAUGGAUCCACAUCUACGAAUUCGUUUUUGAUCUUGAAAUAUUCAGAGUCUGCAGAUCGGAAGAGCACACGU
B28: target 3 G3C,U21G (mixed)
RNA 1: B24 RNA 1
RNA 2: B24 RNA 2 with U31G, A45U, G46C, U47A, C48G
B29: target 3 C6U,U7C (mixed)
RNA 1: B24 RNA 1
RNA 2: B24 RNA 2 with A45C, G46U, U47A, C48G, C49G
B30: target 1 G15U,A16U (mixed)
RNA 1: B1 RNA 1
RNA 2: B1 RNA 2 with A36U, G37U, C40G, C41U
B31: target 3 C1G,U2G (mixed)
RNA 1: B24 RNA 1
RNA 2: B24 RNA 2 with A45U, G46C, U47A, C48G, C49G, U50G, C51G
B32: target 3 C6U,U22G (mixed)
RNA 1: B24 RNA 1
RNA 2: B24 RNA 2 with U30G, A45U, G46U, U47A, C48G, C49G
B33: target 3 insA 3' of 6,insU 3' of 6 (mixed)
RNA 1: B24 RNA 1
RNA 2: B25 RNA 2 with A45U, U46C, C48U

target: T1, EsCas13d, nuclease-dead; assay: crRNA (strand 1, pre-loaded); Mg2+; 40 mM Tris-HCl pH 7.5, 150 mM NaCl, 6 mM MgCl2, 1 mM DTT, 0.1% Tween-20, 0.2 mg/ml BSA; 25 C; 10 min per concentration, then washed; details: tags: His6-TwinStrep-SUMO cleaved; N-terminal SNAP kept (SNAP-Surface 488); label: 3' end held by stalled T7 RNA polymerase

Binder	Kd
B1	17.1 ± 2.1 nM
B2	43 ± 11 nM
B3	9.5 ± 0.5 nM
B4	6.8 ± 0.4 nM
B5	11.4 ± 0.4 nM
B6	73 ± 9 nM
B7	19.9 ± 1.4 nM
B8	62 ± 16 nM
B9	55 ± 5 nM
B10	47 ± 10 nM
B11	13.8 ± 1.1 nM
B12	58 ± 18 nM
B13	22 ± 3 nM
B14	60 ± 20 nM
B15	8.7 ± 0.6 nM
B16	17.7 ± 0.6 nM
B17	37 ± 5 nM

Binder	Kd
B18	15.3 ± 1.4 nM
B19	26 ± 5 nM
B20	14.3 ± 0.6 nM
B21	12.5 ± 0.6 nM
B22	7.02 ± 0.26 nM
B23	7.9 ± 0.4 nM
B24	74 ± 11 nM
B25	44.5 ± 5.5 nM
B26	41 ± 7 nM
B27	90 ± 44.5 nM
B28	70.5 ± 24 nM
B29	65.5 ± 15.5 nM
B30	15.6 ± 0.7 nM
B31	12.8 ± 1.6 nM
B32	51.5 ± 6 nM
B33	5.3 ± 0.39 nM
